These results are taken from patent US20220119536A1.

This test concerns the target human VEGF-A (human) (UniProt P15692). Nature of the test: cell-based or functional assay.

Sequence of EYLEA® (aflibercept) (Fc fusion) (chain): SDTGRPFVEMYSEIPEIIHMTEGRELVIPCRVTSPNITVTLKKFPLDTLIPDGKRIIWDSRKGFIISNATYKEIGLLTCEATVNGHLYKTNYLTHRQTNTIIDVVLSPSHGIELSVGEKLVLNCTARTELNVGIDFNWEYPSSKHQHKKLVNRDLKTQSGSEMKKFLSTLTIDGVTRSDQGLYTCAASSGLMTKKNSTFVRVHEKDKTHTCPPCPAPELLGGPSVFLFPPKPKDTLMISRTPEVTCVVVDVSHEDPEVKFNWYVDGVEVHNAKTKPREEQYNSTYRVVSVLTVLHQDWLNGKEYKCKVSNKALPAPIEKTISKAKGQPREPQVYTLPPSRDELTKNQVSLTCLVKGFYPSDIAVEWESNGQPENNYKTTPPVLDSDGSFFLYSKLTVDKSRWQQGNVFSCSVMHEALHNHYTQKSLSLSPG
Sequence of human VEGF-A (human) (P15692 other isoform, or with tags, fused parts or gaps limits assumed): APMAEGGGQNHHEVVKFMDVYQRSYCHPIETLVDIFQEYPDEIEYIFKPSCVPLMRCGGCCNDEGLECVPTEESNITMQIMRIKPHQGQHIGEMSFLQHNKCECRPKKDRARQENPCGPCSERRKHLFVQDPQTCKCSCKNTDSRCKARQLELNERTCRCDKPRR

EYLEA® (aflibercept) (Fc fusion) returned an ERK1/2 phosphorylation: Bottom plateau (AlphaLISA counts) (AlphaLISA counts) of 21700, an ERK1/2 phosphorylation: Top plateau (AlphaLISA counts) (AlphaLISA counts) of 109000, an HRMEC proliferation Delta (area under the curve vs. basal): Bottom plateau (arbitrary units) (arbitrary units) of 13.3 and an HRMEC proliferation Delta (area under the curve vs. basal): IC50 (pM) of 171 pM. This substance displayed an HRMEC proliferation Delta (area under the curve vs. basal): LogIC50 of -9.77; an HRMEC proliferation Delta (area under the curve vs. basal): Top plateau (arbitrary units) (arbitrary units) of 129; an IC50, inhibition of VEGF-induced p38 MAPK phosphorylation of 0.74 nM; a Src phosphorylation (Y419): Bottom plateau (AlphaLISA counts) (AlphaLISA counts) of 2210. Further, the Src phosphorylation (Y419): IC50 came out at 0.933 nM, the Src phosphorylation (Y419): LogIC50 was -9.37, the Src phosphorylation (Y419): Top plateau (AlphaLISA counts) (AlphaLISA counts) was determined as 3420 and the concentration for full inhibition of VEGF-induced HRMEC proliferation was over 16 nM. The substance also yielded a p38-MAPK phosphorylation (T180/Y182): Bottom plateau (AlphaLISA counts) (AlphaLISA counts) of 8890, a p38-MAPK phosphorylation (T180/Y182): IC50 of 0.748 nM, a p38-MAPK phosphorylation (T180/Y182): LogIC50 of -9.13 and a p38-MAPK phosphorylation (T180/Y182): Top plateau (AlphaLISA counts) (AlphaLISA counts) of 23100.
